{"source": "paper PMC9089384", "biological_target": "human SHP2 catalytic domain (human) (UniProt Q06124)"}
{"substance": "isolated SHP2 N-SH2 domain (domain or fragment)", "values": [{"measurement": "IC50 of inhibition of SHP2 CD PTP activity by isolated N-SH2 (Figure S2)", "value": 15, "unit": "µM"}]}
